{
  "source": "patent US20090275130A1",
  "molecular_target": "receptors for SCF (kit) on EML clone 1 cells (UniProt P05532)",
  "sequence (P05532 25-979 limits assumed)": "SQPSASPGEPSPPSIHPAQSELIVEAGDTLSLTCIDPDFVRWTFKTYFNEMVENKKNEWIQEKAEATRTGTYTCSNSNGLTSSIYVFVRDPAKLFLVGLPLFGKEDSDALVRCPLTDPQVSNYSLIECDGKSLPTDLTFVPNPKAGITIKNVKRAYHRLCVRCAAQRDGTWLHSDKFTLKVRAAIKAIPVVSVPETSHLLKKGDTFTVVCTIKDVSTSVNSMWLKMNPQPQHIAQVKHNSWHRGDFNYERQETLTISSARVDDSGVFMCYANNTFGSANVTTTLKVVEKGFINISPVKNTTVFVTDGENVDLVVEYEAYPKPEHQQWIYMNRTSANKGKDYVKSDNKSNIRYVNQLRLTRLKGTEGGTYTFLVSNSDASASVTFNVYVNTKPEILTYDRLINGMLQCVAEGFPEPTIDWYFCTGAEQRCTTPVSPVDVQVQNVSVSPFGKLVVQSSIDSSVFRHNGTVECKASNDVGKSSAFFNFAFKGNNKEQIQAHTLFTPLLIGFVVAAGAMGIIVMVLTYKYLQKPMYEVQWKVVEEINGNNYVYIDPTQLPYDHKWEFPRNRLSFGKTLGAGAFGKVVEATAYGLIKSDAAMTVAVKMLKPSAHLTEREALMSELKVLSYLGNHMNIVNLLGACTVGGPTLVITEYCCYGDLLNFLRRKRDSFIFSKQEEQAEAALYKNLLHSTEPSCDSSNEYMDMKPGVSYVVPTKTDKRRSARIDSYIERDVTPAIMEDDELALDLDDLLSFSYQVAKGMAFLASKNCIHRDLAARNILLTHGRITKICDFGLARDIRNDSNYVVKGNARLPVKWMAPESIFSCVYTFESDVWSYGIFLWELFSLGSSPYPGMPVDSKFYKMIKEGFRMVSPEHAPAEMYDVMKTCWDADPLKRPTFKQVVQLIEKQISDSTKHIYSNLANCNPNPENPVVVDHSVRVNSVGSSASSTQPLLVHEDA",
  "experiment": "cell-based or functional assay",
  "data": [
    {"substance": "Stem Cell Factor (SCF) (ligand)", "values": [
      {"measurement": "fold-increase over control of cell proliferation of EML cells (total DNA, 5 days), 10 nM SCF", "value": 1.25, "unit": "fold"},
      {"measurement": "fold-increase over control of cell proliferation of EML cells (total DNA, 5 days), 50 nM SCF", "value": 2.4, "unit": "fold"}
    ]}
  ]
}
